In assay [1] the target is prf.GLFG_(52×12), Nup98-type FG domain comprising 52 perfect 12mer GLFG repeat units. Description: FG phase partitioning.
Assay [2] has as its target FG repeat domain of 669 residues with non-charged spacers and 36 FSFG motifs. The assay is described as follows: FG phase partitioning.

Regarding “20 nm T1 pentamer-only capsid spheres of HIV-1 CA G60A, G61P, labelled with ~15% CA-EGFP (complex)”, in assay [1], the partition coefficient is 750.

For the substance “40 nm capsid spheres of HIV-1 CA N21C, A22C, labelled with ~15% CA-EGFP (complex)”, the partition coefficient in assay [1] came to 1000. Still for that read-out and setting: under EGFP stands under 0.1; under “conical CLPs (capsid-like particles) of HIV-1 CA wild-type, labelled with ~15% CA-EGFP (complex)”, 1000. For the substance “conical CLPs of HIV-1 CA A88E, filled with sinGFP4a (complex)”, the fold reduction of partitioning against wild type in assay [1] is over 10 fold. In assay [1], “conical CLPs of HIV-1 CA A92E, filled with sinGFP4a (complex)” gave a fold reduction of partitioning against wild type of over 10 fold and a partitioning relative to the wild-type level of 5%. Substance “conical CLPs of HIV-1 CA G89V, filled with sinGFP4a (complex)” had a fold more effective entry than wild-type CLPs in assay [2] of 4 fold. Regarding “conical CLPs of HIV-1 CA G94D, filled with sinGFP4a (complex)”, the partitioning relative to the wild-type level in assay [1] stood at 5%.

In turn, “conical CLPs of HIV-1 CA H87E, filled with sinGFP4a (complex)” yielded a fold reduction of partitioning against wild type in assay [1] of 15 fold. Substance “conical CLPs of HIV-1 CA H87Q, filled with sinGFP4a (complex)” registered a reduction in partitioning against wild type in assay [1] of 50%.

In assay [1], “conical CLPs of HIV-1 CA I91E, filled with sinGFP4a (complex)” showed a fold reduction of partitioning against wild type of over 10 fold. “conical CLPs of HIV-1 CA M96E, filled with sinGFP4a (complex)” yielded a fold reduction of partitioning against wild type in assay [1] of over 10 fold. The substance “conical CLPs of HIV-1 CA R132K, filled with sinGFP4a (complex)” yielded a reduction in partitioning against wild type in assay [1] of 50%. “conical CLPs of HIV-1 CA V86E, filled with sinGFP4a (complex)” returned a fold reduction of partitioning against wild type in assay [1] of over 10 fold.

Take mCherry: the partition coefficient in assay [1] is under 0.1.

The record behind these values is article doi:10.1101/2025.03.13.643050.
